One data set deals with T1, CgIDH (Corynebacterium glutamicum, UniProt P50216).
T1 construct: His-tag (His6, pET24a-derived LEHHHHHH) (C); made in house; host or cells: E. coli BL21 (DE3)
T1 sequence (P50216 with tags, fused parts or gaps): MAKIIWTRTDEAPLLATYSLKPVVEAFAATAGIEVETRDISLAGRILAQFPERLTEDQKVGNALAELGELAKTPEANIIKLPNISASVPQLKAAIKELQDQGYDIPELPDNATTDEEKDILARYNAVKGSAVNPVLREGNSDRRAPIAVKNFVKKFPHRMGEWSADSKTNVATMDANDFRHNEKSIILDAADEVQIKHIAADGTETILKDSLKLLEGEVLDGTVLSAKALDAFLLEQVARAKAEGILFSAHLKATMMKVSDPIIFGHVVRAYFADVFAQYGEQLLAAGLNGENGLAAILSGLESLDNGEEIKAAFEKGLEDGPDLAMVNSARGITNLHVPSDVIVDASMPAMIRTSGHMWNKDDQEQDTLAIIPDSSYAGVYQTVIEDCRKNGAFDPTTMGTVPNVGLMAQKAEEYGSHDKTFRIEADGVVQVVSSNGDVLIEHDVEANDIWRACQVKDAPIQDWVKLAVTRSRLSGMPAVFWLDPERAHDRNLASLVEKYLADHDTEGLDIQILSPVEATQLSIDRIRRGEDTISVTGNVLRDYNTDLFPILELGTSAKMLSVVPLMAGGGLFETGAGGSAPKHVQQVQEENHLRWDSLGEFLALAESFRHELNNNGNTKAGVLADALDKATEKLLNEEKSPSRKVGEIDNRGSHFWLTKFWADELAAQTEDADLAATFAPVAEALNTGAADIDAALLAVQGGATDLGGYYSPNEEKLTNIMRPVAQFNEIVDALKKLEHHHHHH
The data set is described as follows: Enzyme activity inhibitory effect by α-ketoglutarate on CgIDH. It is filed as biochemical. Particulars: 10 mM α-ketoglutarate added; 5 nM CgIDH. How it is done:
(§1) In order to confirm an enzyme activity inhibitory effect by α-ketoglutarate, which is an enzyme reaction product of the recombinant protein produced in the present invention, a reaction product, in which 5 nM of CgIDH and 5 nM AvIDH were each added to a reaction solution containing 100 mM potassium phosphate buffer (pH 7.4), 0.8 mM manganese sulfate, 40 mM DL-isocitric acid, and 0.5 mM NADP, was prepared. Thereafter, α-ketoglutarate was added for each concentration to proceed the reaction as described in Example 5, and the degree of increase of NADPH was measured. Here, an experimental group to which α-ketoglutarate was not added was used as a control group.

The target in a further data set is T2, AvIDH (Azotobacter vinelandii, UniProt P16100).
T2 construct: His-tag (His6, pET24a-derived LEHHHHHH) (C); made in house; host or cells: E. coli BL21 (DE3)
T2 sequence (P16100 with tags, fused parts or gaps): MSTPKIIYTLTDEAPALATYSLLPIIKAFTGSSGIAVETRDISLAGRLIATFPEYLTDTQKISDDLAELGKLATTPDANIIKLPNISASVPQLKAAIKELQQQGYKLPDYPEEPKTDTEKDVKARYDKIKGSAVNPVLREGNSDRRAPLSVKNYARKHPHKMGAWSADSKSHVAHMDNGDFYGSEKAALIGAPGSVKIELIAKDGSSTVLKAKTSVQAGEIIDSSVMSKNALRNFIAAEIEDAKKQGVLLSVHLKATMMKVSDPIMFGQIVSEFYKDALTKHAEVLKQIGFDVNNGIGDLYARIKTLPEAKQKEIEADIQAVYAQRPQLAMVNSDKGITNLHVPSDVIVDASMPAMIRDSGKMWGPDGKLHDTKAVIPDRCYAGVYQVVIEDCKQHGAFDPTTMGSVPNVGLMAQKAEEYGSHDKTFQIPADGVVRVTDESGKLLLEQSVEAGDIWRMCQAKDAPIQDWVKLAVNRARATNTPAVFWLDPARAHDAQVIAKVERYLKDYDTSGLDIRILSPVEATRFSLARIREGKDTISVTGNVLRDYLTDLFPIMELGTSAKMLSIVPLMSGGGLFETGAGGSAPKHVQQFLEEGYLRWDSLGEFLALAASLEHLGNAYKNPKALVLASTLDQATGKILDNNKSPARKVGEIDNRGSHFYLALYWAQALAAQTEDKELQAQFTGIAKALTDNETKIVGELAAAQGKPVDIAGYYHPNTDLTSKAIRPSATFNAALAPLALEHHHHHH
The data set is described as follows: Enzyme activity inhibitory effect by α-ketoglutarate on AvIDH. The class given is biochemical. Particulars: 20 mM α-ketoglutarate added; 5 nM AvIDH. How it is done:
as §1

Data set [1] in a line: Storage stability of recombinant protein. The class given is physicochemical. Particulars: storage at 4° C. for 30 days; 5 nM enzyme. How it is done:
In order to evaluate the stability of the recombinant protein produced in the present invention, after a certain period of time, each of the recombinant proteins stored at 4° C. was added to a reaction solution containing 100 mM potassium phosphate buffer (pH 7.4), 0.8 mM manganese sulfate, 40 mM DL-isocitric acid, and 0.5 mM NADP+ so that the final concentration was 5 nM, the reaction was proceeded as described in Example 5, and the degree of increase of NADPH was measured.

Data set [2] concerns NADPH regeneration. Briefly: Specific activity analysis of recombinant IDH protein (NADPH increase measured by fluorescence). It is filed as biochemical. Particulars: 5 nM enzyme; for specific activity: 100 mM potassium phosphate buffer pH 7.4, 0.8 mM MnSO4, 0.8 mM DL-isocitric acid, 0.5 mM NADP+. How it is done: In order to confirm the degree of NADPH regeneration by the activity of the IDH recombinant protein, CgIDH and AvIDH were each added to a reaction solution containing 100 mM potassium phosphate buffer (pH 7.4), 0.8 mM manganese sulfate (MnSO4), 0.8 mM DL-isocitric acid, and 0.5 mM NADP+ so that the final concentrations were 5 nM, and the degree of increase of NADPH depending on the enzyme activity was measured with a spectrophotometer. When fluorescence was measured using a spectrophotometer, an excitation wavelength was set to 350 nm and an emission wavelength was set to 450 nm, and the measurement results are shown in FIG. 7.

The target of a further data set is cytochrome P450 BM3 (Priestia megaterium, UniProt P14779). The data set is described as follows: Coupling reaction with cytochrome P450 BM3, HPLC analysis of hydroxylation product of substrate. It is filed as biochemical, Bacillus megaterium. Particulars: coupling reaction 5 min; control = NADPH itself added; CgIDH 10 nM or AvIDH 5 nM, 500 nM P450 BM3, 2 mM omeprazole. How it is done: In the above reaction, in order to confirm that the activity of cytochrome P450 BM3 is maintained by substantial NADPH regeneration, and the hydroxylation reaction of omeprazole, which is one of the substrates, occurs, to 1 mL of a reaction solution containing 100 mM potassium phosphate buffer (pH 7.4), 0.8 mM manganese sulfate, 40 mM DL-isocitric acid, 0.5 mM NADP, and 2 mM omeprazole, CgIDH and cytochrome P450 BM3 were added so that the final concentrations were 10 nM and 500 nM, respectively, and AvIDH and cytochrome P450 BM3 were added so that the final concentrations were 5 nM and 500 nM, respectively, to prepare a reaction product.
cytochrome P450 BM3, sequence (P14779 whole entry): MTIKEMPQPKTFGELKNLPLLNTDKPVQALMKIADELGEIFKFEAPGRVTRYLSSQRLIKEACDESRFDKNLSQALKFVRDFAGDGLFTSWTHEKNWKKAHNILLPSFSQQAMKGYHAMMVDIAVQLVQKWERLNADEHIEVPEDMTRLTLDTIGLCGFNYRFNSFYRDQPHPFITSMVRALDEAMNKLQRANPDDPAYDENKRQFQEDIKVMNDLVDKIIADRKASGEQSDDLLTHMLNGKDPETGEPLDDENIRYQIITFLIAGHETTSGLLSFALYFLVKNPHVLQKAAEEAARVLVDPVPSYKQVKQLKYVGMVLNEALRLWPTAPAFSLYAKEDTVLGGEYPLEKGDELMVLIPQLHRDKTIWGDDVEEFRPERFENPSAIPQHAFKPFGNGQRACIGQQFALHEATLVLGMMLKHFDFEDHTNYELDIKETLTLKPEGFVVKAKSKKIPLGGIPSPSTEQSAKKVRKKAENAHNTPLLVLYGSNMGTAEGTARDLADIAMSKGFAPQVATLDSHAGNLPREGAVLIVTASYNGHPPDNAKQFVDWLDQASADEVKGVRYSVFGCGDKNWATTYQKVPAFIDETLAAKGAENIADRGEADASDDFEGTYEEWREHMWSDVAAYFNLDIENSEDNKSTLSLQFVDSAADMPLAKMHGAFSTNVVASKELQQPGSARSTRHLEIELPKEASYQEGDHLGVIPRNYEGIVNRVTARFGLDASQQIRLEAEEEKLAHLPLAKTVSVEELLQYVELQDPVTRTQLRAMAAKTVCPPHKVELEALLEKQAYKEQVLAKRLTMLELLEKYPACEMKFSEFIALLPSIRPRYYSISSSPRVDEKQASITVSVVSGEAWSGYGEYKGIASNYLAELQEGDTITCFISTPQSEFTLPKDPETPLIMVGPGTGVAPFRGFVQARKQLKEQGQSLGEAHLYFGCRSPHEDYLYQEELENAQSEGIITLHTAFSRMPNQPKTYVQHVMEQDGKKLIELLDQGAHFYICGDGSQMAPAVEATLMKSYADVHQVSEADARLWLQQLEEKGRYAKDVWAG
The reaction mixture was recovered by 90 uL each time, mixed with 90 uL of methanol to stop the reaction, and then HPLC analysis was performed. Specific HPLC performance conditions are as follows: • HPLC was performed using an Alliance HPLC system (Waters). • A SunFire 18C column was used as a column • The amount of sample loading was set to 20 uL. • As a HPLC mobile phase, 30% acetonitrile was flowed at a flow rate of 1 mL/min, and an eluate was measured with ultraviolet (UV) light at 302 nm. • Analysis was performed using an Empower 3 (Waters) program. […]

The test system of data set [3] is NADPH regeneration. The data set is described as follows: Kinetic constant analysis of purified recombinant protein. The class given is biochemical. Particulars: wild-type CgIDH and AvIDH parameters as control groups. How it is done: The analysis of kinetic properties related to an enzyme activity of the recombinant protein, that is, a kinetic constant, was performed by the following procedure.
The analysis of kinetic activity for each of the recombinant proteins purified in Example 2 was performed based on the method described in Chen, R. & Yang, H. Biochemistry and Biophysics, 383(2):238-245 (2000); and Watanabe, S. Microbiology 151(4):1083-1094 (2005).
Here, a Km (uM) value representing the affinity of the enzyme to the substrate as a reaction constant used in enzyme kinetics, a Kcat(S-1) value, which means the metabolic turnover number of the enzyme, and a Kcat/Km (S-1, M-1) value representing a reaction efficiency of the enzyme, were determined.

Take `O=C(O)CCC(=O)C(=O)O` [α-ketoglutarate]: the “reduction of enzyme activity” value at CgIDH and on AvIDH was 30% in each case.

B1: AvIDH: recombinant monomeric isocitrate dehydrogenase from Azotobacter vinelandii, SEQ ID NO: 2, C-terminal histidine tag (protein)
chain: MSTPKIIYTLTDEAPALATYSLLPIIKAFTGSSGIAVETRDISLAGRLIATFPEYLTDTQKISDDLAELGKLATTPDANIIKLPNISASVPQLKAAIKELQQQGYKLPDYPEEPKTDTEKDVKARYDKIKGSAVNPVLREGNSDRRAPLSVKNYARKHPHKMGAWSADSKSHVAHMDNGDFYGSEKAALIGAPGSVKIELIAKDGSSTVLKAKTSVQAGEIIDSSVMSKNALRNFIAAEIEDAKKQGVLLSVHLKATMMKVSDPIMFGQIVSEFYKDALTKHAEVLKQIGFDVNNGIGDLYARIKTLPEAKQKEIEADIQAVYAQRPQLAMVNSDKGITNLHVPSDVIVDASMPAMIRDSGKMWGPDGKLHDTKAVIPDRCYAGVYQVVIEDCKQHGAFDPTTMGSVPNVGLMAQKAEEYGSHDKTFQIPADGVVRVTDESGKLLLEQSVEAGDIWRMCQAKDAPIQDWVKLAVNRARATNTPAVFWLDPARAHDAQVIAKVERYLKDYDTSGLDIRILSPVEATRFSLARIREGKDTISVTGNVLRDYLTDLFPIMELGTSAKMLSIVPLMSGGGLFETGAGGSAPKHVQQFLEEGYLRWDSLGEFLALAASLEHLGNAYKNPKALVLASTLDQATGKILDNNKSPARKVGEIDNRGSHFYLALYWAQALAAQTEDKELQAQFTGIAKALTDNETKIVGELAAAQGKPVDIAGYYHPNTDLTSKAIRPSATFNAALAPLALEHHHHHH
modifications: C-terminal His tag; AvIDH protein
Consider B1, for which the “enzyme activity after storage” value in data set [1] is on record as “did not decrease”. Besides, in the data set with NADPH regeneration [2], the specific activity came out at 28 U/mg. Besides, the “elution amount of 5′-hydroxyomeprazole based on the elution amount produced in the control group” value with cytochrome P450 BM3 came to 114%. Besides, in the data set on NADPH regeneration [3], the “Kcat compared with the wild-types” value was “slight decrease”.

B2: CgIDH: recombinant monomeric isocitrate dehydrogenase from Corynebacterium glutamicum, SEQ ID NO: 1, C-terminal histidine tag (protein)
chain: MAKIIWTRTDEAPLLATYSLKPVVEAFAATAGIEVETRDISLAGRILAQFPERLTEDQKVGNALAELGELAKTPEANIIKLPNISASVPQLKAAIKELQDQGYDIPELPDNATTDEEKDILARYNAVKGSAVNPVLREGNSDRRAPIAVKNFVKKFPHRMGEWSADSKTNVATMDANDFRHNEKSIILDAADEVQIKHIAADGTETILKDSLKLLEGEVLDGTVLSAKALDAFLLEQVARAKAEGILFSAHLKATMMKVSDPIIFGHVVRAYFADVFAQYGEQLLAAGLNGENGLAAILSGLESLDNGEEIKAAFEKGLEDGPDLAMVNSARGITNLHVPSDVIVDASMPAMIRTSGHMWNKDDQEQDTLAIIPDSSYAGVYQTVIEDCRKNGAFDPTTMGTVPNVGLMAQKAEEYGSHDKTFRIEADGVVQVVSSNGDVLIEHDVEANDIWRACQVKDAPIQDWVKLAVTRSRLSGMPAVFWLDPERAHDRNLASLVEKYLADHDTEGLDIQILSPVEATQLSIDRIRRGEDTISVTGNVLRDYNTDLFPILELGTSAKMLSVVPLMAGGGLFETGAGGSAPKHVQQVQEENHLRWDSLGEFLALAESFRHELNNNGNTKAGVLADALDKATEKLLNEEKSPSRKVGEIDNRGSHFWLTKFWADELAAQTEDADLAATFAPVAEALNTGAADIDAALLAVQGGATDLGGYYSPNEEKLTNIMRPVAQFNEIVDALKKLEHHHHHH
modifications: C-terminal His tag; CgIDH protein
B2: the “enzyme activity after storage” value in data set [1] is recorded as “did not decrease”. In addition, in the data set on NADPH regeneration [2], the “enzyme activity (enzyme reaction slope) compared with AvIDH at the same amount of protein” value is given as “higher enzyme activity” and the specific activity is 57 U/mg. For the same molecule, the “elution amount of 5′-hydroxyomeprazole based on the elution amount produced in the control group” value with cytochrome P450 BM3 turned out to be 126%. The “Kcat compared with the wild-types” value with NADPH regeneration [3] is “slight decrease”.

The values are drawn from US12012619B2, “Methods of use for an NADPH-regeneration system based on a monomeric isocitrate dehydrogenase” (INDUSTRY FOUNDATION OF CHONNAM NATIONAL UNIVERSITY, priority 2021, dated 2024).
